Patent US7906616B2, “Truncated DANCE, DANCE complex and method of using these” (Kansai Medical University, priority 2004, dated 2011)
One block for each molecule: values may come before it.

Key:
DANCE-specific protease [1] = experiment: Inhibition of DANCE cleavage by protease inhibitors in transfected 293T cells; format: cell-based; conditions: 293T cells expressing human DANCE, serum-free medium with inhibitor, 48 hours; Western blotting with anti-FLAG M2
Procedure: 293T cells were used in expression experiments. Transfection was performed using the Lipofect AMINE Plus reagent as directed in the product instructions. 24 hours after transfection, the medium was exchanged with serum-free medium, and cultivation was continued for 48 hours; the resulting supernatant or cell lysate was used for Western blotting and in vitro binding assay.
A human DANCE cDNA with FLAG tag and 6×His tag added to the carboxyl terminus thereof was transfected to 293T cells; the cells were cultured using a serum-free medium comprising a cysteine protease inhibitor (E64) or serine protease inhibitor (aprotinin) for 48 hours; a recombinant protein was precipitated from the culture supernatant using Ni-NTA agarose and was developed by SDS-PAGE and Western blotting was performed using anti-FLAG M2 antibody.

DANCE-specific protease [2] = experiment: Cleavage of mutated versus normal form of DANCE expressed in 293T cells; format: cell-based, human; conditions: Arg77 substituted with Ala, serum-free medium 48 hours, Western blotting with anti-FLAG M2
Text: The 77th amino acid of human DANCE, arginine, was substituted with alanine using the Quick Change in vitro mutagenesis kit (Stratagene). The other procedures were the same as pEF6-hDANCE-FLAG.
An expression vector for the mutated form of DANCE resulting from the substitution of the 77th arginine of DANCE with alanine (with C-terminal FLAG and 6×His tag) (FIG. 7), and an expression vector for normal form of DANCE (with C-terminal FLAG and 6×His tag) were transfected to 293T cells; the cells were cultured using serum-free medium for 48 hours; a recombinant protein was precipitated from the culture supernatant using Ni-NTA agarose, and developed by SDS-PAGE, and Western blotting was performed using anti-FLAG M2 antibody.

[3] = system: vascular endothelial cells; experiment: Vascular endothelial cell adhesion assay; format: cell-based; conditions: purified recombinant protein used for coating
Text: Full-length DANCE promotes the adhesion and extension of vascular endothelial cells via cell surface integrin. The present inventor has reported to date that full-length DANCE can serve as a ligand for the integrins αvβ3, αvβ5, and α9β1. Since the domain serving as the ligand is considered to be around the RGD motif of the amino-terminal domain of DANCE, each recombinant protein of a DANCE mutant wherein RGD was replaced with RGE for one-amino-acid substitution (RGE DANCE), and amino-terminal cleaved form of DANCE (ΔND DANCE) were purified, and these, along with full-length DANCE, were subjected to vascular endothelial cell adhesion assay (FIG. 13).

DANCE = target: T1, DANCE (Bos taurus, UniProt Q5EA62); experiment: Precipitation of DANCE-binding proteins from smooth muscle cell culture supernatant (homo-complex); conditions: 50 μg recombinant human DANCE mixed with 35S-labeled bovine arterial smooth muscle cell supernatant, anti-FLAG precipitation
T1 construct: After bovine arterial smooth muscle cells seeded on a 9-cm plate were labeled with 35S-Met and Cys for 24 hours; host or cells: bovine arterial smooth muscle cells (culture supernatant); bait purified from stably transfected 293T cells
T1 sequence (Q5EA62 24-448): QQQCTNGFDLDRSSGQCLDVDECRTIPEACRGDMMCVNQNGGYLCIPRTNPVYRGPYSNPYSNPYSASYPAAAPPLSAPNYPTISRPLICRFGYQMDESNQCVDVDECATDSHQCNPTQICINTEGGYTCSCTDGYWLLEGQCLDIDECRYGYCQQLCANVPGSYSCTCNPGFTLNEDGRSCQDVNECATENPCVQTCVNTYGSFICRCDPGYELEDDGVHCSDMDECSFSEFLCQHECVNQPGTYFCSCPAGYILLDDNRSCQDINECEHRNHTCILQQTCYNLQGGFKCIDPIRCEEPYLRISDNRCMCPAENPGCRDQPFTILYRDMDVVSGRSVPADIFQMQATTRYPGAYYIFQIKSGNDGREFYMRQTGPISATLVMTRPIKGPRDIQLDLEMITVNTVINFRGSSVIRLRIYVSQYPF
T1 sequence (Q9UBX5 24-448 partner): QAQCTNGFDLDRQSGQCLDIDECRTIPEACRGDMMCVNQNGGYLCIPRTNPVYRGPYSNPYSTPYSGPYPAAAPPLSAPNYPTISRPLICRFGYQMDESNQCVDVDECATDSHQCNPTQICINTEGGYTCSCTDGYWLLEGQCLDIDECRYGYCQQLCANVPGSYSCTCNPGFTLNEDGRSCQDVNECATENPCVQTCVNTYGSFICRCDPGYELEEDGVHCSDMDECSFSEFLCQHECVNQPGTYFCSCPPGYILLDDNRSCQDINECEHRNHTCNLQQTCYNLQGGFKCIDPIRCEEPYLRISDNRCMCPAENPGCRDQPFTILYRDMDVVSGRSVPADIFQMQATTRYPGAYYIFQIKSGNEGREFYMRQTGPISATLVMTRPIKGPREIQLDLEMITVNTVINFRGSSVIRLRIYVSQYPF
Procedure: (§1) After bovine arterial smooth muscle cells seeded on a 9-cm plate were labeled with 35S-Met and Cys for 24 hours, the culture supernatant and 50 μg of recombinant human DANCE (with C-terminal FLAG and 6×His) were mixed and precipitated with anti-FLAG agarose (Sigma), and the resulting precipitate was developed by SDS-PAGE and autoradiography was performed. The same culture supernatant was immunoprecipitated with commercially available antibodies against elastic fiber constituent protein (elastin, fibrillin 1, fibrillin 2 and LTBP2), and developed with the same SDS-PAGE gel, and autoradiography was performed.

human skin fibroblasts = experiment: Formation of elastic fibers in cultured human skin fibroblasts; format: cell-based
Procedure: Human fibroblasts were kindly supplied by the Department of Plastic Surgery, Kyoto University Hospital. A cover glass was placed on the bottom of a 24-well plate, on which human fibroblasts were seeded at 7.5×10^4 cells per well, and cultured in a DMEM medium supplemented with 10% FBS at 37° C. in the presence of 5% CO2. After the plate washed with PBS on Day 3, the medium was exchanged with a DMEM/F12 medium not supplemented with FBS, and purified DANCE protein, cleaved form of DANCE protein 4 μg/ml, or FBS was added. Cultivation was continued at 37° C. in the presence of 5% CO2, and the cells were fixed and immunologically stained on Day 14.
On Day 14 of cultivation, the cells were washed with 1 ml of PBS three times, after which they were fixed with 100% methanol at −20° C. for 30 minutes. After washing with PBS, the cells were subjected to blocking with a PBS containing 2% BSA at room temperature for 30 minutes, after which the cells were incubated with the polyclonal anti-elastin antibody (dilution rate 1/100) and the monoclonal anti-FLAG antibody (dilution rate 1/100) at room temperature for at least 1 hour. The cells were washed with PBS and further incubated with the anti-rabbit Alexa Fluor 488 antibody (dilution rate 1/100) and the anti-mouse Alexa Fluor 546 antibody (dilution rate 1/100) at room temperature for 1 hour. After washing with PBS, the cells were fixed with 4% para-formaldehyde at room temperature for 10 minutes and again washed with PBS, after which the sample was mounted onto a glass slide using a DAPI-containing Vectashield. Examination was performed using a confocal microscope.
Human skin fibroblasts were seeded to reach confluency; the medium was replaced with serum-free medium or a medium containing 10% fetal calf serum; the cells were cultured for 2 weeks; the formation of elastic fibers was analyzed by immunostaining with anti-elastin antibody.

human lysyl oxidase = target: T2, human lysyl oxidase (Homo sapiens, UniProt P28300); experiment: In vitro binding assay, DANCE with lysyl oxidase; conditions: anti-FLAG precipitation, anti-Myc detection
T2 construct: The 22nd amino acid to the 417th amino acid of the polypeptide (417 amino acids) encoded by human lysyl oxidase; expressed in transfected cells
T2 sequence (P28300 22-417): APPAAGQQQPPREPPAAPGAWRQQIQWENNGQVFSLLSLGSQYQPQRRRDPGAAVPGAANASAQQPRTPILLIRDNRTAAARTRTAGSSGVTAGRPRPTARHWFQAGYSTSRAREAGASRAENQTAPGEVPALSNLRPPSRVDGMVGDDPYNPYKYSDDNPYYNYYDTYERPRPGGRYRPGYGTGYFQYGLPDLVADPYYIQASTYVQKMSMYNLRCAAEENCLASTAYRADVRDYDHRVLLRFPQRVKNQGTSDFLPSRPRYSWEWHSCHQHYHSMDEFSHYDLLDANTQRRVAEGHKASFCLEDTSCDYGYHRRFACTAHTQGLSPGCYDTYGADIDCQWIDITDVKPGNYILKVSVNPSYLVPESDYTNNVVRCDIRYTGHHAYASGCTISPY
T2 sequence (Q9UBX5 24-448 partner): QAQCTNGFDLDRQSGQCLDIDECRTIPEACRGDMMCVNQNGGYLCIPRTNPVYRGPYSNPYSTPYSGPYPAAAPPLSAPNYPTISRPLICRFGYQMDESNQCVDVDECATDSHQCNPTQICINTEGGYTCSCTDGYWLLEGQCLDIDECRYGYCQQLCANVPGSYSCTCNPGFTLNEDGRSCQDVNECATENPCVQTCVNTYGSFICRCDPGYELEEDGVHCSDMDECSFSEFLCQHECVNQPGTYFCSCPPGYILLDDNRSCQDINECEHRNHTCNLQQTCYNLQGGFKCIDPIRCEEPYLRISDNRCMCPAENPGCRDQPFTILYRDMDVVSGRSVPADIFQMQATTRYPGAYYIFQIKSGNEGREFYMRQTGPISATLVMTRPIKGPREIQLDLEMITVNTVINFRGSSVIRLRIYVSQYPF
Procedure: The 22nd amino acid to the 417th amino acid of the polypeptide (417 amino acids) encoded by human lysyl oxidase (GenBank accession number: AF039291.1) cDNA was amplified by a PCR method and incorporated in the XbaI/NotI site of pEF6/ssMyc.
A human DANCE construct with FLAG tag (FIG. 8), a human DANCE construct with Myc tag, and a human LTBP2 construct were separately transfected to 293T cells. After cultivation in serum-free medium for 48 hours, each culture supernatant and cell extract were mixed, and this was used as the protein solution. A protein solution from the DANCE construct with FLAG tag and a protein solution from DANCE or LTBP2 with Myc tag were mixed on ice for 1 hour, and precipitated with anti-FLAG antibody, and the resulting precipitate was developed by SDS-PAGE, and detected using anti-Myc antibody or anti-FLAG antibody.
The assay was performed in the same manner as Example 6 except that a precipitate obtained using anti-FLAG antibody was developed by SDS-PAGE and detected using anti-Myc antibody.

LTBP2 = target: T3, LTBP2 (Bos taurus, UniProt Q28019); experiment: Precipitation of DANCE-binding proteins from smooth muscle cell culture supernatant (LTBP2); conditions: 50 μg recombinant human DANCE mixed with 35S-labeled bovine arterial smooth muscle cell supernatant, anti-FLAG precipitation
T3 construct: host or cells: bovine arterial smooth muscle cells (culture supernatant); bait purified from stably transfected 293T cells
T3 sequence (Q28019 36-1842, one chain of several): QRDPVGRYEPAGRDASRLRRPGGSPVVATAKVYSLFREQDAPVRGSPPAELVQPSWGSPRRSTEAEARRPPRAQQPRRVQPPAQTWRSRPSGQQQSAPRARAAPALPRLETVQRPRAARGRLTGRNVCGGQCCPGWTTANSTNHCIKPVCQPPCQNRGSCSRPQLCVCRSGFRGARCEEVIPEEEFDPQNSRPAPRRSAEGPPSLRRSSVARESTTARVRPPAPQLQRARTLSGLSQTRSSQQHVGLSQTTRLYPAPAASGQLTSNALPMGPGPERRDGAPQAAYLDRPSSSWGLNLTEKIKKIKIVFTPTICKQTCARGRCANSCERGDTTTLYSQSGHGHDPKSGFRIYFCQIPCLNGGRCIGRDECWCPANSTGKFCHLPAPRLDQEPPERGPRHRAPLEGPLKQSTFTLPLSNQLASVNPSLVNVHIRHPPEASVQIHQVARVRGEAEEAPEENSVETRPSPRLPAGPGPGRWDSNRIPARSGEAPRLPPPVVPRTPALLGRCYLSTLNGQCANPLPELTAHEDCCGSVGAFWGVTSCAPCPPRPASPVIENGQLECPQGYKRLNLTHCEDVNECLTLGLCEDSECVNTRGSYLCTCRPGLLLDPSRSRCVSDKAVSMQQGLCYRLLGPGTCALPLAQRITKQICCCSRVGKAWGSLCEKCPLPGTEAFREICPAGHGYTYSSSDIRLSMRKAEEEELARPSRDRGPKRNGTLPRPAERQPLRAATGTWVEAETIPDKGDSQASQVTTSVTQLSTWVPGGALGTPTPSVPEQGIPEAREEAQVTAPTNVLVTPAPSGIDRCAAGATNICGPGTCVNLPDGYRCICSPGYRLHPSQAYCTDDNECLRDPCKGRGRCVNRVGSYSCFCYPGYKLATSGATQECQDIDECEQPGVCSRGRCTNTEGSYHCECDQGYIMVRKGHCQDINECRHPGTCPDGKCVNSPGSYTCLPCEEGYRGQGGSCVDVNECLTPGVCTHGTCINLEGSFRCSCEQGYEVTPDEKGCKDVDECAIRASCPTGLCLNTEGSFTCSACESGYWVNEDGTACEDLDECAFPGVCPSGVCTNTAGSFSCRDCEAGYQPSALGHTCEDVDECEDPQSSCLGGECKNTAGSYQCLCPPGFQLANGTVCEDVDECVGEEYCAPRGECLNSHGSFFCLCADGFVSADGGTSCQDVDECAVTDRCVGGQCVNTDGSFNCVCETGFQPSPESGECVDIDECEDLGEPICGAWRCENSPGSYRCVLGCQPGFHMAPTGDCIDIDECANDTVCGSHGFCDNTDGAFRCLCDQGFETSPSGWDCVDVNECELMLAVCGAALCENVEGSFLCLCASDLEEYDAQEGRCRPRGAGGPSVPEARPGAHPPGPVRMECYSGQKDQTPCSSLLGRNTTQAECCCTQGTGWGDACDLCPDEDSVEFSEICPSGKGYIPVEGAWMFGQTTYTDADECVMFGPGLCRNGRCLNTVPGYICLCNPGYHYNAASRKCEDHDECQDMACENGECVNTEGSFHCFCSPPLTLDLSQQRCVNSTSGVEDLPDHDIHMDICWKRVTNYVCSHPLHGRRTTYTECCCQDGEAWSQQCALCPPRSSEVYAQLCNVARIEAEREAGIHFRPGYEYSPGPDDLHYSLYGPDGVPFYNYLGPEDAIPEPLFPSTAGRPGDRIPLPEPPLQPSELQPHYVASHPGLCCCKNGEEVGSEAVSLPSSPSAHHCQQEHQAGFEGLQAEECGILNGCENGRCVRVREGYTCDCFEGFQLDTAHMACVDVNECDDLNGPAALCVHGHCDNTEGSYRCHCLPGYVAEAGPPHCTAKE
Procedure: as §1

Molecule: CC(C)C[C@H](NC(=O)[C@H]1O[C@@H]1C(=O)O)C(=O)NCCCCN=C(N)N [E64]
inhibition of the cleavage of DANCE (DANCE-specific protease [1]): not inhibited

Molecule: aprotinin
inhibition of the cleavage of DANCE (DANCE-specific protease [1]): inhibited

B1: mutated form of DANCE: mutated form of DANCE resulting from the substitution of the 77th arginine of DANCE with alanine (protein, UniProt Q9UBX5 24-448, looked up, variant R77A)
Fibulin-5: QAQCTNGFDLDRQSGQCLDIDECRTIPEACRGDMMCVNQNGGYLCIPRTNPVYAGPYSNPYSTPYSGPYPAAAPPLSAPNYPTISRPLICRFGYQMDESNQCVDVDECATDSHQCNPTQICINTEGGYTCSCTDGYWLLEGQCLDIDECRYGYCQQLCANVPGSYSCTCNPGFTLNEDGRSCQDVNECATENPCVQTCVNTYGSFICRCDPGYELEEDGVHCSDMDECSFSEFLCQHECVNQPGTYFCSCPPGYILLDDNRSCQDINECEHRNHTCNLQQTCYNLQGGFKCIDPIRCEEPYLRISDNRCMCPAENPGCRDQPFTILYRDMDVVSGRSVPADIFQMQATTRYPGAYYIFQIKSGNEGREFYMRQTGPISATLVMTRPIKGPREIQLDLEMITVNTVINFRGSSVIRLRIYVSQYPF
resistance to cleavage with a protease (DANCE-specific protease [2]): exhibit resistance to cleavage with a protease

B2: RGE DANCE: DANCE mutant wherein RGD was replaced with RGE for one-amino-acid substitution (protein)
chain: QAQCTNGFDLDRQSGQCLDIDECRTIPEACRGEMMCVNQNGGYLCIPRTNPVYRGPYSNPYSTPYSGPYPAAAPPLSAPNYPTISRPLICRFGYQMDESNQCVDVDECATDSHQCNPTQICINTEGGYTCSCTDGYWLLEGQCLDIDECRYGYCQQLCANVPGSYSCTCNPGFTLNEDGRSCQDVNECATENPCVQTCVNTYGSFICRCDPGYELEEDGVHCSDMDECSFSEFLCQHECVNQPGTYFCSCPPGYILLDDNRSCQDINECEHRNHTCNLQQTCYNLQGGFKCIDPIRCEEPYLRISDNRCMCPAENPGCRDQPFTILYRDMDVVSGRSVPADIFQMQATTRYPGAYYIFQIKSGNEGREFYMRQTGPISATLVMTRPIKGPREIQLDLEMITVNTVINFRGSSVIRLRIYVSQYPF
modifications: left off: small tags and cut ends
notes: DANCE mutant wherein RGD was replaced with RGE for one-amino-acid substitution
cell adhesion activity [3]: almost no cell adhesion activity

formation of a homo-complex (DANCE): forms a homo-complex | binding to lysyl oxidase (human lysyl oxidase): suggested to bind to lysyl oxidase | binding to LTBP2 (LTBP2): binds to LTBP2
B3: DANCE: secretory protein (developmental arteries and neural crest EGF-like; fibulin-5), SEQ ID NO:2 or 4; recombinant human form with C-terminal FLAG and 6×His (protein, listed as Homo sapiens)
chain: MPGIKRILTVTILALCLPSPGNAQAQCTNGFDLDRQSGQCLDIDECRTIPEACRGDMMCVNQNGGYLCIPRTNPVYRGPYSNPYSTPYSGPYPAAAPPLSAPNYPTISRPLICRFGYQMDESNQCVDVDECATDSHQCNPTQICINTEGGYTCSCTDGYWLLEGQCLDIDECRYGYCQQLCANVPGSYSCTCNPGFTLNEDGRSCQDVNECATENPCVQTCVNTYGSFICRCDPGYELEEDGVHCSDMDECSFSEFLCQHECVNQPGTYFCSCPPGYILLDDNRSCQDINECEHRNHTCNLQQTCYNLQGGFKCIDPIRCEEPYLRISDNRCMCPAENPGCRDQPFTILYRDMDVVSGRSVPADIFQMQATTRYPGAYYIFQIKSGNEGREFYMRQTGPISATLVMTRPIKGPREIQLDLEMITVNTVINFRGSSVIRLRIYVSQYPF
modifications: C-terminal FLAG and 6xHis tags
notes: secretory protein (developmental arteries and neural crest EGF-like); recombinant human form with C-terminal FLAG and 6×His
formation of elastic fibers (anti-elastin immunostaining) (human skin fibroblasts; protein added to serum-free medium at 4 μg/ml, cultured for 2 weeks): elastic fibers were formed at a higher level than with the serum-containing medium | localization of the added recombinant protein (anti-FLAG antibody) (human skin fibroblasts; serum-free medium, 4 μg/ml): co-localized with the elastic fibers formed | cell adhesion activity [3]: cell adhesion was promoted with dependence on the concentration of the protein used for coating
